Test results: US20260042827A1, “ANTI-WT1 ANTIGEN-BINDING PROTEINS AND USES THEREOF” (UNIVERSITY HEALTH NETWORK, priority 2022, published 2026)

T1: HLA-DP4 (human), P20036
T1 chain 1: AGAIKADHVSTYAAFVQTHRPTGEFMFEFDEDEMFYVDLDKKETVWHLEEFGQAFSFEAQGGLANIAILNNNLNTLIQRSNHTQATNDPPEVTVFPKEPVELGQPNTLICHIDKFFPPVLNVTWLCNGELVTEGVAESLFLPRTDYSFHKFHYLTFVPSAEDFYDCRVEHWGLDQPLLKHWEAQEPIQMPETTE
T1 chain 2: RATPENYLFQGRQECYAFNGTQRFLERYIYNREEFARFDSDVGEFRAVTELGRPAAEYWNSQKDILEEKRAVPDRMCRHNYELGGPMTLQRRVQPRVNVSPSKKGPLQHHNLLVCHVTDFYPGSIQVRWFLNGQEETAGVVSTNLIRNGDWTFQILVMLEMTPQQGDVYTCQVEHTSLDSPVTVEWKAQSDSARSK

B1: 345A (peptide)
chain: PGCNKRYFKLSHLQMHSAKHT
B2: 332A (peptide)
chain: PGCNARYFKLSHLQMHSRKHT
B3: 329A (peptide)
chain: PACNKRYFKLSHLQMHSRKHT
B4: 331A (peptide)
chain: PGCAKRYFKLSHLQMHSRKHT
B5: 333A (peptide)
chain: PGCNKAYFKLSHLQMHSRKHT
B6: 341A (peptide)
chain: PGCNKRYFKLSHLAMHSRKHT

Target: T1, HLA-DP4 (human), P20036
Assay: competition
Conditions: modification not given

| IC50 [mM] | Binder |
| --- | --- |
| 9.37 | B1 |
| 4.74 | B2 |
| 5.44 | B3 |
| 7.46 | B4 |
| 0.3 | B5 |
| 8.51 | B6 |
